Assay results: the RNAGym collection of RNA variant scans (doi:10.1073/pnas.2313332121)
This sample holds only a part of the variants without activity.

B1: TPR 5TU (parent)
chain: GGAUCUUCUCGAUCUAACAAAAAAGACAAAUCUGCCACAAAGCUUGAGAGCAUCUUCGGAUGCAGAGGCGGCAGCCUUCGGUGGCGCGAUAGCGCCAACGUUCUCAACUAUGACACGCAAAACGCGUGCUCCGUUGAAUGGAGUUUAUCAUG

Variants of: B1
Assay: polymerase ribozyme fitness, log enrichment relative to wild type (log ratio); higher = more active; in vitro selection for triplet polymerase activity
How it was run: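 Input and output libraries were sequenced on Illumina after a single in vitro selection round, run in triplicate on PCR-built, transcribed mutant libraries of each subunit of a heterodimeric triplet polymerase ribozyme. Selection annealed libraries to a biotinylated primer, the partner subunit and triplets, incubated them frozen at −7 °C, then gel-excised extended constructs for streptavidin-bead capture and RT-PCR. Genotypes with ≥10 input reads and ≥1 read per output were kept. Fitness is the logarithm, taken in base 2, of genotype enrichment divided by wild-type enrichment, using inverse-variance-weighted replicate averages.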

A39U A60U G70A and A19U A21U C72G A89C C96G G143A cannot be ordered by “polymerase ribozyme fitness (log ratio)” value: ≤ -4.2 for the first, ≤ -4.2 for the second.

First: C54U G71C C116U G136A U146C
Second: C8U A19G A39U C54U U61A G71A U77A G80C G88U G112C A113G C125G A150U
The “polymerase ribozyme fitness (log ratio)” value of the first is higher: -3.51 for the first, ≤ -4.2 for the second.

Compared with C18U C32U A37C C54A C69A G70U A97U A138C C149A, U4C C5A A24U A41G G46C C85U C96G is higher in “polymerase ribozyme fitness (log ratio)” value: ≤ -4.2 for the first, -3.3 for the second.

Going from C96G G112A to U33G C43U A49C U77G A91U U101A C105G, the “polymerase ribozyme fitness (log ratio)” value falls from -4.07 to ≤ -4.2.

Going from U31C G143A to G143U, the “polymerase ribozyme fitness (log ratio)” value falls from 0.14 to -1.84.

G11U C14G A20G C27G A52U G80A A120U G141U U144G and C5G A30C G81U A138C U144C cannot be ordered by “polymerase ribozyme fitness (log ratio)” value: ≤ -4.2 for the first, ≤ -4.2 for the second.

Compared with C63U A150U, A12U C57G U78C C93U U127A is lower in “polymerase ribozyme fitness (log ratio)” value: 0.854 for the first, ≤ -4.2 for the second.

Going from A23C G58A G62A C87A C116G U135G to A12C A113G, the “polymerase ribozyme fitness (log ratio)” value rises from ≤ -4.2 to -2.73.

Going from C85G U102C G141U to A16C C72U U82A C85U A91U, the “polymerase ribozyme fitness (log ratio)” value falls from -3.43 to ≤ -4.2.

Going from U53A G81A C99U to C8G A16C G25U A37C G59C A64U C87A G92C, the “polymerase ribozyme fitness (log ratio)” value falls from -2.36 to ≤ -4.2.

Going from U6G A21C C75U U144A to U6A A16C A20G G62C A91U A110U, the “polymerase ribozyme fitness (log ratio)” value falls from -0.201 to ≤ -4.2.

Going from G58A C85U A106G to C93A A106C, the “polymerase ribozyme fitness (log ratio)” value falls from -0.0661 to -2.63.

Compared with U53A C131A, A60G C95A U101C is higher in “polymerase ribozyme fitness (log ratio)” value: -3.17 for the first, 0.139 for the second.

First: C14G G94C
Second: U61G G92C C95U C105U A106C U109C A138G
The “polymerase ribozyme fitness (log ratio)” value of the first is higher: -2.23 for the first, ≤ -4.2 for the second.

A23C C27U A29G C87U A110G and G11A A73G G92A A121G cannot be ordered by “polymerase ribozyme fitness (log ratio)” value: ≤ -4.2 for the first, ≤ -4.2 for the second.

A12C A30G C38A C51A U56G C85G C95U A106G U111A and U4A C8G U13G A24C C96U cannot be ordered by “polymerase ribozyme fitness (log ratio)” value: ≤ -4.2 for the first, ≤ -4.2 for the second.

C38U C57A C87A and A19U A21C C54U U134A cannot be ordered by “polymerase ribozyme fitness (log ratio)” value: ≤ -4.2 for the first, ≤ -4.2 for the second.

Going from A37C U56A C85A C99G A107G G124A to A20G A52C, the “polymerase ribozyme fitness (log ratio)” value rises from ≤ -4.2 to -1.28.

C14U G42A C87U G136A and A21C U61A A89U U90G G100U G136A A138C U144G cannot be ordered by “polymerase ribozyme fitness (log ratio)” value: ≤ -4.2 for the first, ≤ -4.2 for the second.

First: G68A C87G U104G
Second: C51U C87U C103A C116A
The “polymerase ribozyme fitness (log ratio)” value of the first is lower: ≤ -4.2 for the first, -2.08 for the second.

A28C U33G G50A C95A U134A and A26G A66U C85A C95A G124C C131A cannot be ordered by “polymerase ribozyme fitness (log ratio)” value: ≤ -4.2 for the first, ≤ -4.2 for the second.

First: C14A A73G G86A A98U
Second: A17U C93A
The “polymerase ribozyme fitness (log ratio)” value of the first is lower: -3.58 for the first, -2.74 for the second.

Compared with C93U C118A U144G, A17U A20C A26C C93U C131U is lower in “polymerase ribozyme fitness (log ratio)” value: -1.06 for the first, -2.3 for the second.

A52U U77G G84C G128A G143A and U56C A64U C93A C95U G133C cannot be ordered by “polymerase ribozyme fitness (log ratio)” value: ≤ -4.2 for the first, ≤ -4.2 for the second.

Compared with U55A C87U C93U, U53G C87A A120U A142U U146A is lower in “polymerase ribozyme fitness (log ratio)” value: -4.13 for the first, ≤ -4.2 for the second.

Going from A24C U33A C35G U53A U82C G92U G136A to C35A A91G C105U, the “polymerase ribozyme fitness (log ratio)” value rises from ≤ -4.2 to -4.17.

A49C U109G and C8A C10G G50U C51G U56G C57G G62A G86A cannot be ordered by “polymerase ribozyme fitness (log ratio)” value: ≤ -4.2 for the first, ≤ -4.2 for the second.

First: C57G U101A
Second: A40U G140U
The “polymerase ribozyme fitness (log ratio)” value of the first is higher: 0.403 for the first, -3.81 for the second.

Going from A16C C99G C125A to C76A A89U G141U, the “polymerase ribozyme fitness (log ratio)” value falls from -2.16 to -2.94.

Going from U45A C93U to C35U C57A U61A G67A C95A C103A C116U, the “polymerase ribozyme fitness (log ratio)” value falls from -3.15 to ≤ -4.2.

Going from G34C G50U C54A G94U C99U to C85A A119U, the “polymerase ribozyme fitness (log ratio)” value rises from ≤ -4.2 to -2.98.

Compared with G92U U101G C131U, C72U A89U A122U U146A is lower in “polymerase ribozyme fitness (log ratio)” value: 0.547 for the first, -0.532 for the second.

Going from G46C U77G A142C to A40U U82A C95G, the “polymerase ribozyme fitness (log ratio)” value rises from ≤ -4.2 to -1.43.

First: A17G A37U C51U
Second: A30C C95G C108U C132G G133U
The “polymerase ribozyme fitness (log ratio)” value of the first is higher: -2.83 for the first, ≤ -4.2 for the second.

Compared with G50C G83C G88U U146A, C35U C63A is higher in “polymerase ribozyme fitness (log ratio)” value: ≤ -4.2 for the first, -0.573 for the second.

U6C U7G G59U G68C U82C G136U and A98G U101C G143U C149U cannot be ordered by “polymerase ribozyme fitness (log ratio)” value: ≤ -4.2 for the first, ≤ -4.2 for the second.

Going from C18U A40G to U55A A91G, the “polymerase ribozyme fitness (log ratio)” value falls from -2.32 to -2.86.

Going from C72G C99G U139A to A19G G50U U55A C96U U145G, the “polymerase ribozyme fitness (log ratio)” value rises from ≤ -4.2 to -2.18.

A30U A52C U82A U101A G128A G136U G141C and C10U A22C A60G C87U G88U cannot be ordered by “polymerase ribozyme fitness (log ratio)” value: ≤ -4.2 for the first, ≤ -4.2 for the second.

Compared with C8A U31A U56G C63A G68U C99A G128U, A52G G83A A121G is higher in “polymerase ribozyme fitness (log ratio)” value: ≤ -4.2 for the first, -0.142 for the second.

First: A91U U111C
Second: A97U U134G
The “polymerase ribozyme fitness (log ratio)” value of the first is lower: ≤ -4.2 for the first, -2.5 for the second.

Going from C5G G136A to G62U U109C C116U C131U A147U, the “polymerase ribozyme fitness (log ratio)” value falls from 0.0107 to -1.94.
